Here are results for 1 molecule from patent US20250282861A1 (SYDDANSK UNIVERSITET, published 2025).

This test deals with T1, recombinant human MFAP4 (microfibrillar-associated protein 4) (human, UniProt P55083 22-255).
T1 construct: It was coated on plates or filters at 10 µg/ml and also served as the ELISA standard; also called rhMFAP4; hrMFAP4
T1 sequence (looked up): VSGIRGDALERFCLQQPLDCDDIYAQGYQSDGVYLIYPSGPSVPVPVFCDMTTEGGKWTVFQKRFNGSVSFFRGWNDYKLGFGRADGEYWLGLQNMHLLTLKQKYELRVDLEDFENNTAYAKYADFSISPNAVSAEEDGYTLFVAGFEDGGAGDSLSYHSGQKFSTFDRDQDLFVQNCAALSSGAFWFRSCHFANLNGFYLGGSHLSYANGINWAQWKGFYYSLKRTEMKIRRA
Put plainly: sandwich ELISA, capture antibody coated at 1 µg/ml; rhMFAP4 as standard. Background: ELISA stands for enzyme-linked immunosorbent assay.

Procedure: The next day, plates were washed and blocked with PBS/tween for 1h at room temperature. […] Then, plates were successively incubated with horseradish peroxidase (HRP)-conjugated streptavidin (1:2000, diluted in PBS/tween, Invitrogen) for half an hour at room temperature, O-phenylenediamine dihydrochloride (OPD) (0.4 mg/ml, H1009, Sigma) dissolved in HRP with 0.03% H₂O₂, for 15 min at room temperature in the dark. Finally, 100 μl/well of 1M H₂SO₄ was added to stop the color development. Optical density was read at 492 nm wavelength with 620 nm as reference using ELISA microplate reader.

B1: HG Hyb 7-5 murine monoclonal antibody raised against human recombinant MFAP4 (antibody, mouse IgG1, V domains shown)
VH: EVQLQQSGPELVKPGASVKLSCKTSGYTFTSYDMNWVKQRPGQGLEWIGWIFPRDGSTKFNEKFKGKATLTVDTSSTTAYMELHSLTSEDSAVYFCARAEIFFDYGFDYWGQGTTLTVSS
VL: DIVMTQSTALMAASPGEKVTITCSVSSSISSSNLHWYQQKSETSPKSWIYGTSNLASGVPGRFSGSGSGTSYSLTISSVEAEDAATYYCQQWSSYPLTFGGGTKLEIK
notes: Used as the capture antibody in the ELISA for human MFAP4
Regarding B1, the binding result was “binds”.
